The target in the assay is Recombinant human caspase-9 (active) (human) (UniProt P55211). The assay can be described thus: enzyme inhibition assay (fluorogenic substrate cleavage); one unit of active recombinant human caspase incubated with various concentrations of peptide inhibitor in 100 mM NaCl, 50 mM HEPES, 10 mM DTT, 1 mM EDTA, 10% glycerol, 0.1% CHAPS, pH 7.4, 37°C, 30 min; then 200 μM substrate (Ac-DEVD-MCA for caspases-3 and -7, Ac-IETD-MCA for caspase-8, Ac-LEHD-MCA for caspase-9); apparent Ki = IC50/(1+[S]/Km).
Chain of Recombinant human caspase-9 (active) (human) (P55211 whole entry): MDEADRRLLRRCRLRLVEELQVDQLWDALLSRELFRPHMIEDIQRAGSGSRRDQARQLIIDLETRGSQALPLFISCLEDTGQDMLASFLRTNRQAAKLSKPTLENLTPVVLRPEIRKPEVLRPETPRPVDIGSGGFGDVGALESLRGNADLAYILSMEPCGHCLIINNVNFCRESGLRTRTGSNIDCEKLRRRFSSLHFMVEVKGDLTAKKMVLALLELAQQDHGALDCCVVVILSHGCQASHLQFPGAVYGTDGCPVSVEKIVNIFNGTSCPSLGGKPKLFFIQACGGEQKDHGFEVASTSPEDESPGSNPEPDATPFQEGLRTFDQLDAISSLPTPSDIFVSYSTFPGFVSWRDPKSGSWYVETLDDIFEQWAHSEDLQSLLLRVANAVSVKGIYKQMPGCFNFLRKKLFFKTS

Some results are limits rather than exact numbers.

B1: Ac-DQTD-CHO (peptide)
peptide: Ac-DQTD-aldehyde
SMILES: CC(=O)N[C@@H](CC(=O)O)C(=O)N[C@@H](CCC(N)=O)C(=O)N[C@H](C(=O)N[C@H](C=O)CC(=O)O)[C@@H](C)O
On to B1, for which the Ki is 14.5 nM.

B2: Ac-DMQD-CHO (peptide)
peptide: Ac-DMQD-aldehyde
SMILES: CSCC[C@H](NC(=O)[C@H](CC(=O)O)NC(C)=O)C(=O)N[C@@H](CCC(N)=O)C(=O)N[C@H](C=O)CC(=O)O
Regarding B2, the Ki is > 200 nM.

The record behind these values is PMC1931592.
